Results reported in patent US12630600B2 (MEDIMMUNE LIMITED, priority 2022, dated 2026).
Starred links: 1 amine or outer side, 2 acyl side, 3 side chain; linkers in the order of their positions; H or OH if unused. Non-standard residues stand in square brackets, D forms with d. Groups on a side chain read outwards from the residue. No end group written: not given here. *: point of attachment. C20 diacid = O=C(O)CCCCCCCCCCCCCCCCCCC(=O)*; C18 diacid = O=C(O)CCCCCCCCCCCCCCCCC(=O)*; γGlu = O=C(O)[C@H](CCC(=O)[*:2])N[*:1]; αMeF = C[C@](N)(Cc1ccccc1)C(=O)O; AEEA = NCCOCCOCC(=O)O; Aib = CC(C)(N)C(=O)O

B1: Peptide 136 (peptide)
peptide: H[Aib]QGTFTSDVSK[αMeF]LDSK([γGlu-γGlu-AEEA-AEEA-γGlu-γGlu-C18 diacid])RARDFVRWLLE[Aib]G-OH
modifications: N-terminus assumed
SMILES: CC(C)C[C@H](NC(=O)[C@H](Cc1c[nH]c2ccccc12)NC(=O)[C@H](CCCNC(=N)N)NC(=O)[C@@H](NC(=O)[C@H](Cc1ccccc1)NC(=O)[C@H](CC(=O)O)NC(=O)[C@H](CCCNC(=N)N)NC(=O)[C@H](C)NC(=O)[C@H](CCCNC(=N)N)NC(=O)[C@H](CCCCNC(=O)CC[C@H](NC(=O)CC[C@H](NC(=O)COCCOCCNC(=O)COCCOCCNC(=O)CC[C@H](NC(=O)CC[C@H](NC(=O)CCCCCCCCCCCCCCCCC(=O)O)C(=O)O)C(=O)O)C(=O)O)C(=O)O)NC(=O)[C@H](CO)NC(=O)[C@H](CC(=O)O)NC(=O)[C@H](CC(C)C)NC(=O)[C@](C)(Cc1ccccc1)NC(=O)[C@H](CCCCN)NC(=O)[C@H](CO)NC(=O)[C@@H](NC(=O)[C@H](CC(=O)O)NC(=O)[C@H](CO)NC(=O)[C@@H](NC(=O)[C@H](Cc1ccccc1)NC(=O)[C@@H](NC(=O)CNC(=O)[C@H](CCC(N)=O)NC(=O)C(C)(C)NC(=O)[C@@H](N)Cc1c[nH]cn1)[C@@H](C)O)[C@@H](C)O)C(C)C)C(C)C)C(=O)N[C@@H](CC(C)C)C(=O)N[C@@H](CCC(=O)O)C(=O)NC(C)(C)C(=O)NCC(=O)O
B2: Peptide 143 (peptide)
peptide: H[Aib]QGTFTSDVSK[αMeF]LDSK([AEEA-AEEA-γGlu-C18 diacid])RARDFVQWLLE[Aib]G-OH
modifications: N-terminus assumed
SMILES: CC(C)C[C@H](NC(=O)[C@H](Cc1c[nH]c2ccccc12)NC(=O)[C@H](CCC(N)=O)NC(=O)[C@@H](NC(=O)[C@H](Cc1ccccc1)NC(=O)[C@H](CC(=O)O)NC(=O)[C@H](CCCNC(=N)N)NC(=O)[C@H](C)NC(=O)[C@H](CCCNC(=N)N)NC(=O)[C@H](CCCCNC(=O)COCCOCCNC(=O)COCCOCCNC(=O)CC[C@H](NC(=O)CCCCCCCCCCCCCCCCC(=O)O)C(=O)O)NC(=O)[C@H](CO)NC(=O)[C@H](CC(=O)O)NC(=O)[C@H](CC(C)C)NC(=O)[C@](C)(Cc1ccccc1)NC(=O)[C@H](CCCCN)NC(=O)[C@H](CO)NC(=O)[C@@H](NC(=O)[C@H](CC(=O)O)NC(=O)[C@H](CO)NC(=O)[C@@H](NC(=O)[C@H](Cc1ccccc1)NC(=O)[C@@H](NC(=O)CNC(=O)[C@H](CCC(N)=O)NC(=O)C(C)(C)NC(=O)[C@@H](N)Cc1c[nH]cn1)[C@@H](C)O)[C@@H](C)O)C(C)C)C(C)C)C(=O)N[C@@H](CC(C)C)C(=O)N[C@@H](CCC(=O)O)C(=O)NC(C)(C)C(=O)NCC(=O)O
B3: Peptide 139 (peptide)
peptide: H[Aib]QGTFTSDVSK[αMeF]LDSK([γGlu-γGlu-AEEA-AEEA-γGlu-γGlu-C20 diacid])RAQDFVRWLLE[Aib]G-OH
B4: Peptide 138 (peptide)
peptide: H[Aib]QGTFTSDVSK[αMeF]LDSK([γGlu-γGlu-AEEA-AEEA-γGlu-γGlu-C18 diacid])RAQDFVRWLLE[Aib]G-OH
modifications: N-terminus assumed
SMILES: CC(C)C[C@H](NC(=O)[C@H](Cc1c[nH]c2ccccc12)NC(=O)[C@H](CCCNC(=N)N)NC(=O)[C@@H](NC(=O)[C@H](Cc1ccccc1)NC(=O)[C@H](CC(=O)O)NC(=O)[C@H](CCC(N)=O)NC(=O)[C@H](C)NC(=O)[C@H](CCCNC(=N)N)NC(=O)[C@H](CCCCNC(=O)CC[C@H](NC(=O)CC[C@H](NC(=O)COCCOCCNC(=O)COCCOCCNC(=O)CC[C@H](NC(=O)CC[C@H](NC(=O)CCCCCCCCCCCCCCCCC(=O)O)C(=O)O)C(=O)O)C(=O)O)C(=O)O)NC(=O)[C@H](CO)NC(=O)[C@H](CC(=O)O)NC(=O)[C@H](CC(C)C)NC(=O)[C@](C)(Cc1ccccc1)NC(=O)[C@H](CCCCN)NC(=O)[C@H](CO)NC(=O)[C@@H](NC(=O)[C@H](CC(=O)O)NC(=O)[C@H](CO)NC(=O)[C@@H](NC(=O)[C@H](Cc1ccccc1)NC(=O)[C@@H](NC(=O)CNC(=O)[C@H](CCC(N)=O)NC(=O)C(C)(C)NC(=O)[C@@H](N)Cc1c[nH]cn1)[C@@H](C)O)[C@@H](C)O)C(C)C)C(C)C)C(=O)N[C@@H](CC(C)C)C(=O)N[C@@H](CCC(=O)O)C(=O)NC(C)(C)C(=O)NCC(=O)O
B5: Peptide 137 (peptide)
peptide: H[Aib]QGTFTSDVSK[αMeF]LDSK([γGlu-γGlu-AEEA-AEEA-γGlu-γGlu-C18 diacid])RAQDFVRWLLEG[Aib]-OH
modifications: N-terminus assumed
SMILES: CC(C)C[C@H](NC(=O)[C@H](CC(C)C)NC(=O)[C@H](Cc1c[nH]c2ccccc12)NC(=O)[C@H](CCCNC(=N)N)NC(=O)[C@@H](NC(=O)[C@H](Cc1ccccc1)NC(=O)[C@H](CC(=O)O)NC(=O)[C@H](CCC(N)=O)NC(=O)[C@H](C)NC(=O)[C@H](CCCNC(=N)N)NC(=O)[C@H](CCCCNC(=O)CC[C@H](NC(=O)CC[C@H](NC(=O)COCCOCCNC(=O)COCCOCCNC(=O)CC[C@H](NC(=O)CC[C@H](NC(=O)CCCCCCCCCCCCCCCCC(=O)O)C(=O)O)C(=O)O)C(=O)O)C(=O)O)NC(=O)[C@H](CO)NC(=O)[C@H](CC(=O)O)NC(=O)[C@H](CC(C)C)NC(=O)[C@](C)(Cc1ccccc1)NC(=O)[C@H](CCCCN)NC(=O)[C@H](CO)NC(=O)[C@@H](NC(=O)[C@H](CC(=O)O)NC(=O)[C@H](CO)NC(=O)[C@@H](NC(=O)[C@H](Cc1ccccc1)NC(=O)[C@@H](NC(=O)CNC(=O)[C@H](CCC(N)=O)NC(=O)C(C)(C)NC(=O)[C@@H](N)Cc1c[nH]cn1)[C@@H](C)O)[C@@H](C)O)C(C)C)C(C)C)C(=O)N[C@@H](CCC(=O)O)C(=O)NCC(=O)NC(C)(C)C(=O)O
B6: Peptide 3 (peptide)
peptide: HSQGS[αMeF]TSDVSK[αMeF]LDSK([γGlu-C18 diacid])AAQDFVQWIANT-NH2
modifications: N-terminus assumed
SMILES: CC[C@H](C)[C@H](NC(=O)[C@H](Cc1c[nH]c2ccccc12)NC(=O)[C@H](CCC(N)=O)NC(=O)[C@@H](NC(=O)[C@H](Cc1ccccc1)NC(=O)[C@H](CC(=O)O)NC(=O)[C@H](CCC(N)=O)NC(=O)[C@H](C)NC(=O)[C@H](C)NC(=O)[C@H](CCCCNC(=O)CC[C@H](NC(=O)CCCCCCCCCCCCCCCCC(=O)O)C(=O)O)NC(=O)[C@H](CO)NC(=O)[C@H](CC(=O)O)NC(=O)[C@H](CC(C)C)NC(=O)[C@](C)(Cc1ccccc1)NC(=O)[C@H](CCCCN)NC(=O)[C@H](CO)NC(=O)[C@@H](NC(=O)[C@H](CC(=O)O)NC(=O)[C@H](CO)NC(=O)[C@@H](NC(=O)[C@](C)(Cc1ccccc1)NC(=O)[C@H](CO)NC(=O)CNC(=O)[C@H](CCC(N)=O)NC(=O)[C@H](CO)NC(=O)[C@@H](N)Cc1c[nH]cn1)[C@@H](C)O)C(C)C)C(C)C)C(=O)N[C@@H](C)C(=O)N[C@@H](CC(N)=O)C(=O)N[C@H](C(N)=O)[C@@H](C)O
B7: Peptide 141 (peptide)
peptide: H[Aib]QGTFTSDVSK[αMeF]LDSK([AEEA-AEEA-γGlu-C18 diacid])RAQDFVAWLLE[Aib]G-OH
modifications: N-terminus assumed
SMILES: CC(C)C[C@H](NC(=O)[C@H](Cc1c[nH]c2ccccc12)NC(=O)[C@H](C)NC(=O)[C@@H](NC(=O)[C@H](Cc1ccccc1)NC(=O)[C@H](CC(=O)O)NC(=O)[C@H](CCC(N)=O)NC(=O)[C@H](C)NC(=O)[C@H](CCCNC(=N)N)NC(=O)[C@H](CCCCNC(=O)COCCOCCNC(=O)COCCOCCNC(=O)CC[C@H](NC(=O)CCCCCCCCCCCCCCCCC(=O)O)C(=O)O)NC(=O)[C@H](CO)NC(=O)[C@H](CC(=O)O)NC(=O)[C@H](CC(C)C)NC(=O)[C@](C)(Cc1ccccc1)NC(=O)[C@H](CCCCN)NC(=O)[C@H](CO)NC(=O)[C@@H](NC(=O)[C@H](CC(=O)O)NC(=O)[C@H](CO)NC(=O)[C@@H](NC(=O)[C@H](Cc1ccccc1)NC(=O)[C@@H](NC(=O)CNC(=O)[C@H](CCC(N)=O)NC(=O)C(C)(C)NC(=O)[C@@H](N)Cc1c[nH]cn1)[C@@H](C)O)[C@@H](C)O)C(C)C)C(C)C)C(=O)N[C@@H](CC(C)C)C(=O)N[C@@H](CCC(=O)O)C(=O)NC(C)(C)C(=O)NCC(=O)O
B8: Peptide 142 (peptide)
peptide: H[Aib]QGTFTSDVSK[αMeF]LDSK([AEEA-AEEA-γGlu-C18 diacid])RARDFVAWLLE[Aib]G-OH
modifications: N-terminus assumed
SMILES: CC(C)C[C@H](NC(=O)[C@H](Cc1c[nH]c2ccccc12)NC(=O)[C@H](C)NC(=O)[C@@H](NC(=O)[C@H](Cc1ccccc1)NC(=O)[C@H](CC(=O)O)NC(=O)[C@H](CCCNC(=N)N)NC(=O)[C@H](C)NC(=O)[C@H](CCCNC(=N)N)NC(=O)[C@H](CCCCNC(=O)COCCOCCNC(=O)COCCOCCNC(=O)CC[C@H](NC(=O)CCCCCCCCCCCCCCCCC(=O)O)C(=O)O)NC(=O)[C@H](CO)NC(=O)[C@H](CC(=O)O)NC(=O)[C@H](CC(C)C)NC(=O)[C@](C)(Cc1ccccc1)NC(=O)[C@H](CCCCN)NC(=O)[C@H](CO)NC(=O)[C@@H](NC(=O)[C@H](CC(=O)O)NC(=O)[C@H](CO)NC(=O)[C@@H](NC(=O)[C@H](Cc1ccccc1)NC(=O)[C@@H](NC(=O)CNC(=O)[C@H](CCC(N)=O)NC(=O)C(C)(C)NC(=O)[C@@H](N)Cc1c[nH]cn1)[C@@H](C)O)[C@@H](C)O)C(C)C)C(C)C)C(=O)N[C@@H](CC(C)C)C(=O)N[C@@H](CCC(=O)O)C(=O)NC(C)(C)C(=O)NCC(=O)O

Target: human GLP-1 receptor (human, UniProt P43220)
Assay: cell-based or functional assay

| Binder | cAMP production, hGLP-1R EC50 (pM) |
| --- | --- |
| B1 | 45.2 pM |
| B2 | 19.1 pM |
| B3 | 630 pM |
| B4 | 104 pM |
| B5 | 143 pM |
| B6 | 69 pM |
| B7 | 264 pM |
| B8 | 59.4 pM |

Target: human glucagon receptor (human, UniProt P47871)
Assay: cell-based or functional assay

| Binder | cAMP production, hGluc-R EC50 (pM) |
| --- | --- |
| B1 | 509 pM |
| B2 | 32.6 pM |
| B3 | 984 pM |
| B4 | 184 pM |
| B5 | 268 pM |
| B6 | 149 pM |
| B7 | 392 pM |
| B8 | 108 pM |
